# Test results: patent publication US20240182536A1 (MURAL ONCOLOGY, published 2024)
# Read-outs that look alike come from different tables or passages of the source.
# What was measured:
# [1] = biological target: T1, IL-18 receptor alpha (UniProt Q13478 19-329, limits assumed); assay: Octet BLI
# T1 construct: also called IL-18 Rα; IL-18Rα
# T1 sequence (looked up): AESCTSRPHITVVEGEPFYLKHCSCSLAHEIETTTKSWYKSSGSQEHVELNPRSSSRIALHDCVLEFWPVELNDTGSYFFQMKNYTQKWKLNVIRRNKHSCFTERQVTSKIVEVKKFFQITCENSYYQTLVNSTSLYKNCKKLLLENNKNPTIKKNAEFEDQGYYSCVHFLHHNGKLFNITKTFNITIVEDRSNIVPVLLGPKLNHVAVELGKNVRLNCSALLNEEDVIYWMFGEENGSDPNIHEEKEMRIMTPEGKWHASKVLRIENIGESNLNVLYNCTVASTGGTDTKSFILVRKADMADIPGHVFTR
# Procedure: (§1) Octet 96red instrument was used to determine affinities of IL18 proteins to BP or receptors. 5-10 ug/ml analyte proteins were used for loading on Sartorius tips (AHC or SA). […] 120-180 s loading, 200 s association and 800 s dissociation were used for kinetics. 3-7 data points were used to calculate affinities.
# Additional IL-18 variants were generated and tested based on the results above with G3 variants, E6 variants, K53 variants, and M60 variants. The new variants were first tested for binding to IL-18Rα and IL-18BP by octet, as described above.
# [2] = biological target: T2, IL-18 receptors on HEK-Blue IL-18 reporter cells (UniProt Q13478 19-541; O95256 20-599, limits assumed); assay: cell-based or functional assay
# T2 sequence (looked up) 1: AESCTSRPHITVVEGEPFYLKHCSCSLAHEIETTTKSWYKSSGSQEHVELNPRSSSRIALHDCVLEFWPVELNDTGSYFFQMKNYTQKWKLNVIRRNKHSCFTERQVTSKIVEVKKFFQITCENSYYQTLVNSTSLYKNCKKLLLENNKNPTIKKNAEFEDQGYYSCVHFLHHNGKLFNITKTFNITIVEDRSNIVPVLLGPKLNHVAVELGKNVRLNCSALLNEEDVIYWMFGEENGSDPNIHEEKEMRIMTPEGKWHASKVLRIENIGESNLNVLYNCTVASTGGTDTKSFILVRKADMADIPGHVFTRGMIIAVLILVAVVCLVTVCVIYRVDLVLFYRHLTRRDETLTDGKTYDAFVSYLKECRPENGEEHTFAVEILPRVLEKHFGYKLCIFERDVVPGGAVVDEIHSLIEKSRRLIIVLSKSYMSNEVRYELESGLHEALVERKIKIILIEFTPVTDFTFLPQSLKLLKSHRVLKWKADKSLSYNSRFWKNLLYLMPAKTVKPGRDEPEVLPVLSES
# T2 sequence (looked up) 2: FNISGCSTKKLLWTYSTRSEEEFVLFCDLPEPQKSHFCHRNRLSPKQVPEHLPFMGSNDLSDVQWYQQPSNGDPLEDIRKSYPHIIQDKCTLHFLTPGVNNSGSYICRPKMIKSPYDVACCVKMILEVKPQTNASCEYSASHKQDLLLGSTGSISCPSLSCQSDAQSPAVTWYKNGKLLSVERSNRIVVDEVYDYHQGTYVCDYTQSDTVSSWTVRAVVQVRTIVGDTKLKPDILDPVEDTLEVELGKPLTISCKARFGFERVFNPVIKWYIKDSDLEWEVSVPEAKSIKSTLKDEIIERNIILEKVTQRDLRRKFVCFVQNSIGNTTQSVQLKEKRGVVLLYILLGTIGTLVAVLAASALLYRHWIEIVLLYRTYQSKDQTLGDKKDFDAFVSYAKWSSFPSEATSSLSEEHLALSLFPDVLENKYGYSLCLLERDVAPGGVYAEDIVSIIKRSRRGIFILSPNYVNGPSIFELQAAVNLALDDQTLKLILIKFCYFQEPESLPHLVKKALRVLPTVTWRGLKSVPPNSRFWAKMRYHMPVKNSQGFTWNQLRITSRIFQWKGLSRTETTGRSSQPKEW
# [3] = biological target: T3, human IL-18 binding protein (human, UniProt O95998 31-194); assay: cell-based or functional assay
# T3 sequence (looked up): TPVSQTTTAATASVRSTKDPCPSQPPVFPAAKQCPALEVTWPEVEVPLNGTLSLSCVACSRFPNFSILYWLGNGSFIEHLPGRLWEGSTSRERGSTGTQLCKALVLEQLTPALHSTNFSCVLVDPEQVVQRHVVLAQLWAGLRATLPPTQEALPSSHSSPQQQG
# [4] = biological target: T2, IL-18 receptors on HEK-Blue IL-18 …; assay: cell-based or functional assay; remark: listed apart in the source
# [5] = biological target: T3, human IL-18 binding protein; assay: cell-based or functional assay; remark: listed apart in the source
# [6] = biological target: T4, IL-18 receptors on HEK-Blue IL-18 reporter cells (InvivoGen) (UniProt Q13478 19-541; O95256 20-599); assay: cell-based or functional assay
# T4 sequence (looked up) 1: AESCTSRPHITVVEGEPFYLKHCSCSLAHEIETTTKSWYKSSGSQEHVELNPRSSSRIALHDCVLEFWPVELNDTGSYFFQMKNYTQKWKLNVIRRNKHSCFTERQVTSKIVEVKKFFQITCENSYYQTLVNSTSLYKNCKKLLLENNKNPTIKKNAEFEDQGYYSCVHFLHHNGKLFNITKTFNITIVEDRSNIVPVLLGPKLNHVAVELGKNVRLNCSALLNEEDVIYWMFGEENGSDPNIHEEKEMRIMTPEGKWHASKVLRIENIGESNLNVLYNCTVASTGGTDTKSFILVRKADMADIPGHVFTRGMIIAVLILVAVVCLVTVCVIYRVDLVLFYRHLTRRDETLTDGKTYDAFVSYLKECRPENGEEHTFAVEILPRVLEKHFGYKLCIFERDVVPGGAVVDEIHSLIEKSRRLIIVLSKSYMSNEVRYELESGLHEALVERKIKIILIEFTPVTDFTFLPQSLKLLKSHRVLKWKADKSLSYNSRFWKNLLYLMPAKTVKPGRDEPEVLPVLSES
# T4 sequence (looked up) 2: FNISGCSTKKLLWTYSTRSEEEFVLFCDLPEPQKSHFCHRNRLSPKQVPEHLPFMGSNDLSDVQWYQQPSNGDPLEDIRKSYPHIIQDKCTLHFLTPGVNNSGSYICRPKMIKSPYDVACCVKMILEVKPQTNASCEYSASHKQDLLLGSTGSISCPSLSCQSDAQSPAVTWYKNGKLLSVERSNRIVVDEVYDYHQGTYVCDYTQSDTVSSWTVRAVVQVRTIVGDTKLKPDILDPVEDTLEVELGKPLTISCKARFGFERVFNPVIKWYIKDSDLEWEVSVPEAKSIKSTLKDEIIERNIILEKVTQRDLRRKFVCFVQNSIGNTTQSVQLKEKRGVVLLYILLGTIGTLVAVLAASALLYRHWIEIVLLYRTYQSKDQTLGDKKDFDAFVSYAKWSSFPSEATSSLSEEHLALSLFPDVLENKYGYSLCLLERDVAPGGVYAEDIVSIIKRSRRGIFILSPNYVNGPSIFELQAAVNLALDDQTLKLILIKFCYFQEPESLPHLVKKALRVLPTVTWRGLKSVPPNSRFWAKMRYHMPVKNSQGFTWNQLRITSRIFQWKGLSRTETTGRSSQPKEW
# [7] = biological target: T5, human IL-18 binding protein (IL-18BP) (human, UniProt O95998 31-194); assay: cell-based or functional assay
# T5 sequence (looked up): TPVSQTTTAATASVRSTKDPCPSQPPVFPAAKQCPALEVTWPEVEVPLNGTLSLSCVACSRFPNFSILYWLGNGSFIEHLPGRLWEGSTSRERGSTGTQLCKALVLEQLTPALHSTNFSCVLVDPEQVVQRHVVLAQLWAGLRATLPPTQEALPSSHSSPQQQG
# [8] = biological target: T5, human IL-18 binding protein (IL-18BP); assay: Octet BLI
# Procedure: as §1
# Select G3/K53-substitution containing IL-18 variants and select G3/K53/N91-substitution containing TL-18 variants were tested for activity in the HEK-blue activity assay and for binding affinity to IL-18BP. As shown in the data of Table 15 and Table 16 below, each variant had similar or better activity than WT IL-18, and retained substantial activity in the presence of IL-18BP.
Binder,Kd [1] [µM],HEK-blue EC50 (pM) - BP [2] [pM],HEK-blue EC50 (pM) + 1000 nM BP [3] [pM],HEK-blue EC50 (pM) - BP [4] [pM],HEK-blue EC50 (pM) + 300 nM BP [5] [pM],"HEK-Blue Ec50 (pM), -IL-18BP [6] [pM]","HEK-Blue Ec50 (pM), +IL-18BP (50 nM) [7] [pM]",Kd [8] [µM],koff [8] [s⁻¹],kon [8] [M⁻¹ s⁻¹]
"Comparator 1 (ligand, Human IL-18 variant M51K, K53S, Q56L, P57A, M60L, S105D, D110S, N111R; also called IL-18 Comparator 1) YFGKLESKLSVIRNLNDQVLFIDQGNRPLFEDMTDSDCRDNAPRTIFIISKYSDSLARGLAVTISVKCEKISTLSCENKIISFKEMNPPDNIKDTKSDIIFFQRDVPGHSRKMQFESSSYEGYFLACEKERDLFKLILKKEDELGDRSIMFTVQNED",0.016,–,–,–,–,–,–,–,–,–
human IL-18 variant G3V/K53A/M60K (ligand) YFVKLESKLSVIRNLNDQVLFIDQGNRPLFEDMTDSDMRDNAPRTIFIISMYADSQPRGKAVTISVKSEKISTLSSENKIISFKEMNPPDNIKDTKSDIIFFQRSVPGHDNKMQFESSSYEGYFLASEKERDLFKLILKKEDELGDRSIMFTVQNED,0.488,0.086,0.075,0.041,0.063,–,–,–,–,–
human IL-18 variant G3V/E6K/K53S/M60K (ligand) YFVKLKSKLSVIRNLNDQVLFIDQGNRPLFEDMTDSDMRDNAPRTIFIISMYSDSQPRGKAVTISVKSEKISTLSSENKIISFKEMNPPDNIKDTKSDIIFFQRSVPGHDNKMQFESSSYEGYFLASEKERDLFKLILKKEDELGDRSIMFTVQNED,0.324,0.089,0.095,0.079,0.098,–,–,–,–,–
human IL-18 variant G3T/E6K/K53S/M60K (ligand) YFTKLKSKLSVIRNLNDQVLFIDQGNRPLFEDMTDSDMRDNAPRTIFIISMYSDSQPRGKAVTISVKSEKISTLSSENKIISFKEMNPPDNIKDTKSDIIFFQRSVPGHDNKMQFESSSYEGYFLASEKERDLFKLILKKEDELGDRSIMFTVQNED,0.536,0.252,0.231,0.33,0.308,–,–,–,–,–
human IL-18 variant G3T/K53S/M60K (ligand) YFTKLESKLSVIRNLNDQVLFIDQGNRPLFEDMTDSDMRDNAPRTIFIISMYSDSQPRGKAVTISVKSEKISTLSSENKIISFKEMNPPDNIKDTKSDIIFFQRSVPGHDNKMQFESSSYEGYFLASEKERDLFKLILKKEDELGDRSIMFTVQNED,5.05,5.53,4.1,4.26,4.99,–,–,–,–,–
human IL-18 variant G3V/K53S/M60K (ligand) YFVKLESKLSVIRNLNDQVLFIDQGNRPLFEDMTDSDMRDNAPRTIFIISMYSDSQPRGKAVTISVKSEKISTLSSENKIISFKEMNPPDNIKDTKSDIIFFQRSVPGHDNKMQFESSSYEGYFLASEKERDLFKLILKKEDELGDRSIMFTVQNED,5.31,0.021,2.61,2.11,2.18,–,–,–,–,–
human IL-18 variant G3T/E6K/K53A/M60K (ligand) YFTKLKSKLSVIRNLNDQVLFIDQGNRPLFEDMTDSDMRDNAPRTIFIISMYADSQPRGKAVTISVKSEKISTLSSENKIISFKEMNPPDNIKDTKSDIIFFQRSVPGHDNKMQFESSSYEGYFLASEKERDLFKLILKKEDELGDRSIMFTVQNED,0.222,0.054,0.065,0.061,0.062,–,–,–,–,–
human IL-18 variant G3V/E6K/K53A/M60K (ligand) YFVKLKSKLSVIRNLNDQVLFIDQGNRPLFEDMTDSDMRDNAPRTIFIISMYADSQPRGKAVTISVKSEKISTLSSENKIISFKEMNPPDNIKDTKSDIIFFQRSVPGHDNKMQFESSSYEGYFLASEKERDLFKLILKKEDELGDRSIMFTVQNED,0.082,0.031,0.028,0.026,0.033,–,–,–,–,–
human IL-18 variant G3T/K53A/M60K (ligand) YFTKLESKLSVIRNLNDQVLFIDQGNRPLFEDMTDSDMRDNAPRTIFIISMYADSQPRGKAVTISVKSEKISTLSSENKIISFKEMNPPDNIKDTKSDIIFFQRSVPGHDNKMQFESSSYEGYFLASEKERDLFKLILKKEDELGDRSIMFTVQNED,2.26,1.88,1.31,0.843,1.01,–,–,–,–,–
"IL-18 variant G3A, K53S (ligand) YFAKLESKLSVIRNLNDQVLFIDQGNRPLFEDMTDSDMRDNAPRTIFIISMYSDSQPRGMAVTISVKSEKISTLSSENKIISFKEMNPPDNIKDTKSDIIFFQRSVPGHDNKMQFESSSYEGYFLASEKERDLFKLILKKEDELGDRSIMFTVQNED",–,–,–,–,–,1.69,4.45,0.0162,0.00398,245000
"IL-18 variant G3S, K53S (ligand) YFSKLESKLSVIRNLNDQVLFIDQGNRPLFEDMTDSDMRDNAPRTIFIISMYSDSQPRGMAVTISVKSEKISTLSSENKIISFKEMNPPDNIKDTKSDIIFFQRSVPGHDNKMQFESSSYEGYFLASEKERDLFKLILKKEDELGDRSIMFTVQNED",–,–,–,–,–,2.06,4.43,0.012,0.00338,283000
"IL-18 variant G3F, K53S (ligand) YFFKLESKLSVIRNLNDQVLFIDQGNRPLFEDMTDSDMRDNAPRTIFIISMYSDSQPRGMAVTISVKSEKISTLSSENKIISFKEMNPPDNIKDTKSDIIFFQRSVPGHDNKMQFESSSYEGYFLASEKERDLFKLILKKEDELGDRSIMFTVQNED",–,–,–,–,–,3.39,5.88,0.0118,0.0048,408000
